# Source: the supplement of paper PMC9170038
# Legend:
# MS2 coat protein [1] = assay: apparent KD of MS2 coat protein, switch OFF state (with FMN for OFF switches, without FMN for ON switches); designed switch direction (-1 OFF switch, 1 ON switch): -1; higher = weaker reporter binding; details: FMN input: 0 or 200 uM; Eterna round: R93 (includes R88 designs)
# Procedure, shortened: (§1)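 Normalised binding curves from single clusters were fitted, and the median fit for each design is given as apparent KD. The clusters held designed RNA switches transcribed on-chip from Illumina sequencing clusters. These were titrated with SNAP-549-labelled MS2 coat protein (twofold steps from 0.7 or 1.5 nM to 3 µM, 0.8–1.5 h to 10–20 min per step) in 100 mM Tris-HCl pH 7.5, 80 mM KCl, 4 mM MgCl2, without or with constant ligand.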
# MS2 coat protein [2] = assay: apparent KD of MS2 coat protein, switch ON state; designed switch direction (-1 OFF switch, 1 ON switch): -1; higher = weaker reporter binding; details: FMN input: 0 or 200 uM; Eterna round: R93 (includes R88 designs)
# Procedure, shortened: as §1
Sequence,apparent KD of MS2 coat protein (MS2 coat protein [1]),apparent KD of MS2 coat protein (MS2 coat protein [2])
GAUAGUGAAGGAUAUACUGGAGGAGUGCGAUAGAAGCAAGAACAUGAGGAUCACCCAUGUAGAAGGUCAGAAGU [JR_Exc002_Sub1224],0.0232 µM,0.0255 µM
CUUGUGUGAGGAUAUGUAAGAUGAAUAAGCAGUUCUAAAAGGCAGAAGGCACAUGAGGAUCACCCAUGUAAAAU [Sodirexe],0.0161 µM,0.0613 µM
AAAGAUACAGGAUAUACAUGAGGAUCACCCAUGUGGAAUCUAAAAUGGGAAAAAGAAAGUAGAAGGGUAUAAAA [Ex 3 May 39],0.0635 µM,0.034 µM
AACUGUACAGGAUAUACAUGAGGAUCACCCAUGUGAGAAUUAAGUGGCGAACCACAAAGUAGAAGGGUACAGGA [Mat - Exclusion 3 - JL mod - D16],0.138 µM,0.0503 µM
AAGAAUCAAGGAUAUACAAGGAAGAAAGAAAAGAAAAGAAAACAUGAGGAUCACCCAUGUAGAAGGUGAUAGAA [EteRNA is fun!],0.846 µM,0.327 µM
AAGUUAUUAGGAUAUACUUGUGCGAUCCAUACGUUGAUAUUACAUGAGGAUCACCCAUGUAGAAGGAAUAAAAA [JR_Exc002_Sub414],0.0452 µM,0.0482 µM
CAAAGGUGAGGAUAUGCAUAACUAUGACGAAAGUCAUAAACACAUGAGGAUCACCCAUGUAGAAGGCGCCACAA [e2-3],0.0572 µM,0.0788 µM
AAAAAACAUGAGGAUCACCCAUGUAAGGAUAUCUAAAAUAAAAGAAAAAUAAAGAAAAGGAGAAGGUAUAUGAA [JL wbt mod 20],0.0257 µM,0.0198 µM
AAAAAGUGAGGAUAUACGCUGAAGAGUAGACACAACCAGGCGUAGAAGGCACAUGAGGAUCACCCAUGUACAAA [Ex4 Malc#9],0.0261 µM,0.0286 µM
AAGAAGUGAGGAUAUACAUGAACGAAAAAAAAAAAGAGCAUGUAGAAGGCACAUGAGGAUCACCCAUGUCAAAA [Georg Simmel],0.0278 µM,0.0293 µM
AGCUAGUCAGGAUAUACAUAAAAAAAAAAAAAAAGUGAUAAACAUGAGGAUCACCCAUGUAGAAGGGACUAGCA [Similarities v.4.2 (34 mutated to A)],0.0483 µM,0.029 µM
AAAAAUGGAGGAUAUACAUGAGGAUCACCCAUGUGUAACUAAACAAAACACAAAAAAAGUAGAAGGCCAAAAAA [Gilly Gone Silly 6 - Jieux - Exclusion 3],0.0171 µM,0.0145 µM
AACAUGUGAGGAUAUAAAAGAAAAGAAAAGAAAGAAAAGAAUUAGAAGGCACAUGAGGAUCACCCAUGUAAGAA [EteRNA is fun!],0.0319 µM,0.0282 µM
AGCAAGUUAGGAUAUGCGAAGUCAGGACACACACUGACAAAGCAGAAGGAACAUGAGGAUCACCCAUGUAAGCA [Mat - Exaclusion 4 - Eli mod - D64],0.0208 µM,0.0299 µM
AGUCAUACAGGAUAUACAUGAGGAUCACCCAUGUAAAUCCUAAAAAGAAAAAAAUCAUGUAGAAGGGUAUGACA [EX3 224: Super Stable 24],0.0172 µM,0.013 µM
AAGAAAGAAGGAUAUACAAGGAAGAAAGAAAAGAAAAGAAAACAUGAGGAUCACCCAUGUAGAAGGUCUUAGAA [EteRNA is fun!],0.0138 µM,0.0195 µM
AAAAAGUCAGGAUAUAUCAAAAAAAAAGAAAAAAAAAAAAGAUAGAAGGGACAUGAGGAUCACCCAUGUAAAAA [water's exclusion 4 last],0.0342 µM,0.0743 µM
AAGUUGACAGGAUAUACUUGGGCAACAAAUAAACUAAUAUAACAUGAGGAUCACCCAUGUAGAAGGGUCAGAAA [JR_Exc002_Sub207],0.0564 µM,0.0463 µM
AGGGAACAUGAGGAUCACCCAUGUGAGGAUAUAGAAAAGAAAAGAAAAGAAAGAAGAACUAGAAGGUACAAGAA [Merenre Nemtyemsaf I],0.03 µM,0.0261 µM
AAAAAGUCAGGAUAUAUAGGAAAAAUAAAAAAAAUAAAACUAUAGAAGGGACAUGAGGAUCACCCAUGUUAAAA [Ex 4 May 15],0.0229 µM,0.0454 µM
GGGUAACAUGAGGAUCACCCAUGUGAGGAUAUGCUAGGGAUGGAAGCCAGGCCAAAAAGCAGAAGGUACUAAAG [Janelle Amethyst 18 Mod 16 - Jieux - Exclusion 1],0.0343 µM,0.0236 µM
AACAGUACAGGAUAUACAUGAGGAUCACCCAUGUGAGAAACCAAUGGCGUACCAUAAAGUAGAAGGGUACUGGA [Moding Maslow Revisited (73) 31],0.158 µM,0.0623 µM
